Measurements reported in patent US20210403538A1 (published 2021).

Legend:
EBOV GP [change] [1] = biological target: T1, EBOV GP [change] (Zaire ebolavirus (EBOV), strain Makona); test: BLI
BDBV GP [change] = BDBV GP [change] (Bundibugyo ebolavirus (BDBV), strain …); test: ELISA
EBOV GP [change] [2] = biological target: T1, EBOV GP [change]; test: ELISA

Binder	Kd (EBOV GP [change] [1]) [nM]	EC50 (BDBV GP [change]) [ng/mL]	EC50 (EBOV GP [change] [2]) [ng/mL]
rEBOV-548 (antibody, V domains shown) VH: QVQVEESGGGVVQPGGSLRLSCAASGFMFSNYGMHWVRQAPGKGLEWMAFIRYDDSKKFYADSVKGRFTISRDNSKNTLYLQMNSLRAEDTALYYCAKELLQVYTSAWGEGHSYYYALDVWGLGTAVTVSS VL: DIQMTQSPSSVSASVGDRVTITCRASQDISNWLAWYQQKPGKAPELLIYTASILQSGVSSRFSGSGSGTDFTLTISSLQPEDSATYYCQQGKSFPYTFGQGTKLEIK	0.041	7	6
EBOV-515 (antibody, V domains shown) VH: QVQLQESGPGLVKPSQTLSLTCTVSGGSINSAGYYWTWIRQHPGKGLEWIGYIDYTGRTYYNPSLESRVIISIDTSKNHFSLRLTSVSAADTAVYYCARESSWVSELGRDNWGQGTLVTVSS VL: EIVMTQSPATLPVSPGEGATLSCRASQSVFTNLAWYQQKPGQAPRLLIYDASTRATGIPARFSGSGSGTEFTLTISSLQSEDFAVYYCQQYNNWPRTYGQGTRVEVK	0.53		
rEBOV-542 (antibody, V domains shown) VH: EVQLVESGGGLVQPGGSLRLSCAASGFTVSNNYMSWVRQAPGKGLEWVSLIYTSVTTYYADSVKGRFTISRDNSKNTLYLQMNSLRAEDTAVYYCARELGNWSYGVSYWGRGTLVTVSS VL: SYELTQPPSVSVSPGQTARITCSGDALPKQYAYWYQQKPGQAPVLVIYKDSERPSGIPERFSGSSSGTTVTLTISGVQAEDGADYYCQSADGSGTYPVVFGGGTKLTVL	0.26	8	11
rEBOV-520 LALA (antibody, V domains shown) VH: QVQLQESGPGLGKPSETLSLSCTVSGASIRGYFWNWIRQPPGKGLEWIGYIHSTGSTNYNPSLKSRVTISVDTSKNQVSLNVNSVTAADTAVYFCARGAWNVATVYYYYGMDVWGQGTLVTVSS VL: EIVLTQSPGTLSLSPGERATLSCRASQSVSSSYFAWYQQKPGQAPRLLISGTSTRAPGIPDRFSGSGSGTDFTLTISRLEPEDFAVYFCQQYGNSLYTFGQGTKLEIK	2.12	45	18
